These results are taken from patent publication US20140206609A1 (Sanofi, published 2014).

*1 amine or outer side, *2 acyl side, *3 side chain or, on linkers, in order; H or OH if unused. Where no end group is shown, it is not given here. Side-chain parts run from the residue outwards. [ ]: non-standard residue; d: D form. The star is where a group is joined. henicosanoyl = CCCCCCCCCCCCCCCCCCCCC(=O)*; γGlu = O=C(O)[C@H](CCC(=O)[*:2])N[*:1]; Stearoyl = CCCCCCCCCCCCCCCCCC(=O)*; Palmitoyl = CCCCCCCCCCCCCCCC(=O)*; Aib = CC(C)(N)C(=O)O

T1: human GIP receptor (human, UniProt P48546 22-466)
T1 sequence (looked up): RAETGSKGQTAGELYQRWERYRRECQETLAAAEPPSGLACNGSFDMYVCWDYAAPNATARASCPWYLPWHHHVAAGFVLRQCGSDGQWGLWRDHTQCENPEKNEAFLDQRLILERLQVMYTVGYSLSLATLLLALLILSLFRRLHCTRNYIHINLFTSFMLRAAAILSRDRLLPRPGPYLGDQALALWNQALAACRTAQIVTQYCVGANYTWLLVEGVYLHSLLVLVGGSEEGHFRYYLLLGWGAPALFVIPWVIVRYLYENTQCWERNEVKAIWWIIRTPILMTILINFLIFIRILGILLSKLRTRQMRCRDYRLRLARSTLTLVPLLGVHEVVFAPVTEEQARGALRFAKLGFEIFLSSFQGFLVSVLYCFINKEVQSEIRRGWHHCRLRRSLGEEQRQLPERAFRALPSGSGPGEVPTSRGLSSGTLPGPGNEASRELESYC

B1: SEQ ID NO: 24 (peptide)
peptide: Y[Aib]EGTFTSDLSIQK([γGlu-Palmitoyl])ESRAA[Aib]DFIEWLKNTGPSSGAPPPS-NH2
modifications: N-terminus assumed
SMILES: CCCCCCCCCCCCCCCC(=O)N[C@@H](CCC(=O)NCCCC[C@H](NC(=O)[C@H](CCC(N)=O)NC(=O)[C@@H](NC(=O)[C@H](CO)NC(=O)[C@H](CC(C)C)NC(=O)[C@H](CC(=O)O)NC(=O)[C@H](CO)NC(=O)[C@@H](NC(=O)[C@H](Cc1ccccc1)NC(=O)[C@@H](NC(=O)CNC(=O)[C@H](CCC(=O)O)NC(=O)C(C)(C)NC(=O)[C@@H](N)Cc1ccc(O)cc1)[C@@H](C)O)[C@@H](C)O)[C@@H](C)CC)C(=O)N[C@@H](CCC(=O)O)C(=O)N[C@@H](CO)C(=O)N[C@@H](CCCNC(=N)N)C(=O)N[C@@H](C)C(=O)N[C@@H](C)C(=O)NC(C)(C)C(=O)N[C@@H](CC(=O)O)C(=O)N[C@@H](Cc1ccccc1)C(=O)N[C@H](C(=O)N[C@@H](CCC(=O)O)C(=O)N[C@@H](Cc1c[nH]c2ccccc12)C(=O)N[C@@H](CC(C)C)C(=O)N[C@@H](CCCCN)C(=O)N[C@@H](CC(N)=O)C(=O)N[C@H](C(=O)NCC(=O)N1CCC[C@H]1C(=O)N[C@@H](CO)C(=O)N[C@@H](CO)C(=O)NCC(=O)N[C@@H](C)C(=O)N1CCC[C@H]1C(=O)N1CCC[C@H]1C(=O)N1CCC[C@H]1C(=O)N[C@@H](CO)C(N)=O)[C@@H](C)O)[C@@H](C)CC)C(=O)O
B2: SEQ ID NO: 22 (peptide)
peptide: Y[Aib]EGTFTSDLSIQK([γGlu-Palmitoyl])DSRAAQDFIEWLKAGGPSSGAPPPS-NH2
modifications: N-terminus assumed
SMILES: CCCCCCCCCCCCCCCC(=O)N[C@@H](CCC(=O)NCCCC[C@H](NC(=O)[C@H](CCC(N)=O)NC(=O)[C@@H](NC(=O)[C@H](CO)NC(=O)[C@H](CC(C)C)NC(=O)[C@H](CC(=O)O)NC(=O)[C@H](CO)NC(=O)[C@@H](NC(=O)[C@H](Cc1ccccc1)NC(=O)[C@@H](NC(=O)CNC(=O)[C@H](CCC(=O)O)NC(=O)C(C)(C)NC(=O)[C@@H](N)Cc1ccc(O)cc1)[C@@H](C)O)[C@@H](C)O)[C@@H](C)CC)C(=O)N[C@@H](CC(=O)O)C(=O)N[C@@H](CO)C(=O)N[C@@H](CCCNC(=N)N)C(=O)N[C@@H](C)C(=O)N[C@@H](C)C(=O)N[C@@H](CCC(N)=O)C(=O)N[C@@H](CC(=O)O)C(=O)N[C@@H](Cc1ccccc1)C(=O)N[C@H](C(=O)N[C@@H](CCC(=O)O)C(=O)N[C@@H](Cc1c[nH]c2ccccc12)C(=O)N[C@@H](CC(C)C)C(=O)N[C@@H](CCCCN)C(=O)N[C@@H](C)C(=O)NCC(=O)NCC(=O)N1CCC[C@H]1C(=O)N[C@@H](CO)C(=O)N[C@@H](CO)C(=O)NCC(=O)N[C@@H](C)C(=O)N1CCC[C@H]1C(=O)N1CCC[C@H]1C(=O)N1CCC[C@H]1C(=O)N[C@@H](CO)C(N)=O)[C@@H](C)CC)C(=O)O
B3: SEQ ID NO: 19 (peptide)
peptide: Y[Aib]EGTFTSDLSIQK([γGlu-Stearoyl])EKRAAQEFIEWLKNTGPSSGAPPPS-NH2
modifications: N-terminus assumed
SMILES: CCCCCCCCCCCCCCCCCC(=O)N[C@@H](CCC(=O)NCCCC[C@H](NC(=O)[C@H](CCC(N)=O)NC(=O)[C@@H](NC(=O)[C@H](CO)NC(=O)[C@H](CC(C)C)NC(=O)[C@H](CC(=O)O)NC(=O)[C@H](CO)NC(=O)[C@@H](NC(=O)[C@H](Cc1ccccc1)NC(=O)[C@@H](NC(=O)CNC(=O)[C@H](CCC(=O)O)NC(=O)C(C)(C)NC(=O)[C@@H](N)Cc1ccc(O)cc1)[C@@H](C)O)[C@@H](C)O)[C@@H](C)CC)C(=O)N[C@@H](CCC(=O)O)C(=O)N[C@@H](CCCCN)C(=O)N[C@@H](CCCNC(=N)N)C(=O)N[C@@H](C)C(=O)N[C@@H](C)C(=O)N[C@@H](CCC(N)=O)C(=O)N[C@@H](CCC(=O)O)C(=O)N[C@@H](Cc1ccccc1)C(=O)N[C@H](C(=O)N[C@@H](CCC(=O)O)C(=O)N[C@@H](Cc1c[nH]c2ccccc12)C(=O)N[C@@H](CC(C)C)C(=O)N[C@@H](CCCCN)C(=O)N[C@@H](CC(N)=O)C(=O)N[C@H](C(=O)NCC(=O)N1CCC[C@H]1C(=O)N[C@@H](CO)C(=O)N[C@@H](CO)C(=O)NCC(=O)N[C@@H](C)C(=O)N1CCC[C@H]1C(=O)N1CCC[C@H]1C(=O)N1CCC[C@H]1C(=O)N[C@@H](CO)C(N)=O)[C@@H](C)O)[C@@H](C)CC)C(=O)O
B4: SEQ ID NO: 23 (peptide)
peptide: Y[Aib]EGTFTSDLSIQK([γGlu-Palmitoyl])ESRAAQDFIEWLKNTGPSSGAPPPS-NH2
modifications: N-terminus assumed
SMILES: CCCCCCCCCCCCCCCC(=O)N[C@@H](CCC(=O)NCCCC[C@H](NC(=O)[C@H](CCC(N)=O)NC(=O)[C@@H](NC(=O)[C@H](CO)NC(=O)[C@H](CC(C)C)NC(=O)[C@H](CC(=O)O)NC(=O)[C@H](CO)NC(=O)[C@@H](NC(=O)[C@H](Cc1ccccc1)NC(=O)[C@@H](NC(=O)CNC(=O)[C@H](CCC(=O)O)NC(=O)C(C)(C)NC(=O)[C@@H](N)Cc1ccc(O)cc1)[C@@H](C)O)[C@@H](C)O)[C@@H](C)CC)C(=O)N[C@@H](CCC(=O)O)C(=O)N[C@@H](CO)C(=O)N[C@@H](CCCNC(=N)N)C(=O)N[C@@H](C)C(=O)N[C@@H](C)C(=O)N[C@@H](CCC(N)=O)C(=O)N[C@@H](CC(=O)O)C(=O)N[C@@H](Cc1ccccc1)C(=O)N[C@H](C(=O)N[C@@H](CCC(=O)O)C(=O)N[C@@H](Cc1c[nH]c2ccccc12)C(=O)N[C@@H](CC(C)C)C(=O)N[C@@H](CCCCN)C(=O)N[C@@H](CC(N)=O)C(=O)N[C@H](C(=O)NCC(=O)N1CCC[C@H]1C(=O)N[C@@H](CO)C(=O)N[C@@H](CO)C(=O)NCC(=O)N[C@@H](C)C(=O)N1CCC[C@H]1C(=O)N1CCC[C@H]1C(=O)N1CCC[C@H]1C(=O)N[C@@H](CO)C(N)=O)[C@@H](C)O)[C@@H](C)CC)C(=O)O
B5: SEQ ID NO: 20 (peptide)
peptide: Y[Aib]EGTFTSDLSIQK([γGlu-henicosanoyl])EKRAA[Aib]EFIEWLKNTGPSSGAPPPS-NH2
modifications: N-terminus assumed
SMILES: CCCCCCCCCCCCCCCCCCCCC(=O)N[C@@H](CCC(=O)NCCCC[C@H](NC(=O)[C@H](CCC(N)=O)NC(=O)[C@@H](NC(=O)[C@H](CO)NC(=O)[C@H](CC(C)C)NC(=O)[C@H](CC(=O)O)NC(=O)[C@H](CO)NC(=O)[C@@H](NC(=O)[C@H](Cc1ccccc1)NC(=O)[C@@H](NC(=O)CNC(=O)[C@H](CCC(=O)O)NC(=O)C(C)(C)NC(=O)[C@@H](N)Cc1ccc(O)cc1)[C@@H](C)O)[C@@H](C)O)[C@@H](C)CC)C(=O)N[C@@H](CCC(=O)O)C(=O)N[C@@H](CCCCN)C(=O)N[C@@H](CCCNC(=N)N)C(=O)N[C@@H](C)C(=O)N[C@@H](C)C(=O)NC(C)(C)C(=O)N[C@@H](CCC(=O)O)C(=O)N[C@@H](Cc1ccccc1)C(=O)N[C@H](C(=O)N[C@@H](CCC(=O)O)C(=O)N[C@@H](Cc1c[nH]c2ccccc12)C(=O)N[C@@H](CC(C)C)C(=O)N[C@@H](CCCCN)C(=O)N[C@@H](CC(N)=O)C(=O)N[C@H](C(=O)NCC(=O)N1CCC[C@H]1C(=O)N[C@@H](CO)C(=O)N[C@@H](CO)C(=O)NCC(=O)N[C@@H](C)C(=O)N1CCC[C@H]1C(=O)N1CCC[C@H]1C(=O)N1CCC[C@H]1C(=O)N[C@@H](CO)C(N)=O)[C@@H](C)O)[C@@H](C)CC)C(=O)O
B6: SEQ ID NO: 21 (peptide)
peptide: Y[Aib]EGTFTSDLSIQK([γGlu-Stearoyl])ESRAAQEFIEWLKAGGPSSGAPPPS-NH2
modifications: N-terminus assumed
SMILES: CCCCCCCCCCCCCCCCCC(=O)N[C@@H](CCC(=O)NCCCC[C@H](NC(=O)[C@H](CCC(N)=O)NC(=O)[C@@H](NC(=O)[C@H](CO)NC(=O)[C@H](CC(C)C)NC(=O)[C@H](CC(=O)O)NC(=O)[C@H](CO)NC(=O)[C@@H](NC(=O)[C@H](Cc1ccccc1)NC(=O)[C@@H](NC(=O)CNC(=O)[C@H](CCC(=O)O)NC(=O)C(C)(C)NC(=O)[C@@H](N)Cc1ccc(O)cc1)[C@@H](C)O)[C@@H](C)O)[C@@H](C)CC)C(=O)N[C@@H](CCC(=O)O)C(=O)N[C@@H](CO)C(=O)N[C@@H](CCCNC(=N)N)C(=O)N[C@@H](C)C(=O)N[C@@H](C)C(=O)N[C@@H](CCC(N)=O)C(=O)N[C@@H](CCC(=O)O)C(=O)N[C@@H](Cc1ccccc1)C(=O)N[C@H](C(=O)N[C@@H](CCC(=O)O)C(=O)N[C@@H](Cc1c[nH]c2ccccc12)C(=O)N[C@@H](CC(C)C)C(=O)N[C@@H](CCCCN)C(=O)N[C@@H](C)C(=O)NCC(=O)NCC(=O)N1CCC[C@H]1C(=O)N[C@@H](CO)C(=O)N[C@@H](CO)C(=O)NCC(=O)N[C@@H](C)C(=O)N1CCC[C@H]1C(=O)N1CCC[C@H]1C(=O)N1CCC[C@H]1C(=O)N[C@@H](CO)C(N)=O)[C@@H](C)CC)C(=O)O

Sequence of human glucagon receptor (P47871 26-477): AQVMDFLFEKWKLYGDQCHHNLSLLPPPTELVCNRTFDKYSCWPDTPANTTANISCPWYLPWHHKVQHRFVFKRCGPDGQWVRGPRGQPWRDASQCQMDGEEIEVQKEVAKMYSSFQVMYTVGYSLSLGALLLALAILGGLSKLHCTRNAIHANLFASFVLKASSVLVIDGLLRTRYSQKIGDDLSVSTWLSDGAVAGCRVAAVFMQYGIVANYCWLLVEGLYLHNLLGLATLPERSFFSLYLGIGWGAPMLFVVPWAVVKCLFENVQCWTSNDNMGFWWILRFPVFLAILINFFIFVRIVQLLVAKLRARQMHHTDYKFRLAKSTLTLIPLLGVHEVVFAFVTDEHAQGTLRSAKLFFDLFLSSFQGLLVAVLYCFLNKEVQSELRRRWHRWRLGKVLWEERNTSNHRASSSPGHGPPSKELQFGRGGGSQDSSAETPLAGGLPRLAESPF

One test has as its target human GLP-1 receptor (human, UniProt P43220 24-463). Description: cell-based or functional assay.
On to B1, for which the “EC50 hGLP-1 R [pM]” value was 13.5 pM.

Turning to B2, the “EC50 hGLP-1 R [pM]” value was 32 pM.

With B3, the “EC50 hGLP-1 R [pM]” value turned out to be 4 pM.

B4: the “EC50 hGLP-1 R [pM]” value worked out at 11.8 pM.

For the molecule B5, the “EC50 hGLP-1 R [pM]” value stood at 23.2 pM.

Turning to B6, the “EC50 hGLP-1 R [pM]” value is 4.8 pM.

The next test concerns the target T1, human GIP receptor. Description: cell-based or functional assay.
Consider B1, for which the “EC50 hGIP R [pM]” value was determined as 23.5 pM.

Regarding B2, the “EC50 hGIP R [pM]” value is 16.6 pM.

Take B3: the “EC50 hGIP R [pM]” value worked out at 13.8 pM.

For the molecule B4, the “EC50 hGIP R [pM]” value came to 79.5 pM.

Turning to B5, the “EC50 hGIP R [pM]” value was determined as 24.5 pM.

B6: the “EC50 hGIP R [pM]” value turned out to be 6.4 pM.

Another test concerns the target human glucagon receptor (human, UniProt P47871 26-477). Description: cell-based or functional assay.
Take B1: the “EC50 hGLUC R [pM]” value turned out to be 38900 pM.

As for B2, the “EC50 hGLUC R [pM]” value was determined as 11600 pM.

With B3, the “EC50 hGLUC R [pM]” value was found to be 708 pM.

For the molecule B4, the “EC50 hGLUC R [pM]” value came to 19100 pM.

For B5, the “EC50 hGLUC R [pM]” value turned out to be 3310 pM.

With B6, the “EC50 hGLUC R [pM]” value turned out to be 10100 pM.
